Data from publication PMC2377106 (2003).
Blank lines part the entries; values can stand above or below the binder they belong to.

How the values were obtained:
[1] = biological target: T1, VEGFR2(ΔKD)m -20-809 (Homo sapiens, UniProt P35968); assay: competition RIA
T1 chain: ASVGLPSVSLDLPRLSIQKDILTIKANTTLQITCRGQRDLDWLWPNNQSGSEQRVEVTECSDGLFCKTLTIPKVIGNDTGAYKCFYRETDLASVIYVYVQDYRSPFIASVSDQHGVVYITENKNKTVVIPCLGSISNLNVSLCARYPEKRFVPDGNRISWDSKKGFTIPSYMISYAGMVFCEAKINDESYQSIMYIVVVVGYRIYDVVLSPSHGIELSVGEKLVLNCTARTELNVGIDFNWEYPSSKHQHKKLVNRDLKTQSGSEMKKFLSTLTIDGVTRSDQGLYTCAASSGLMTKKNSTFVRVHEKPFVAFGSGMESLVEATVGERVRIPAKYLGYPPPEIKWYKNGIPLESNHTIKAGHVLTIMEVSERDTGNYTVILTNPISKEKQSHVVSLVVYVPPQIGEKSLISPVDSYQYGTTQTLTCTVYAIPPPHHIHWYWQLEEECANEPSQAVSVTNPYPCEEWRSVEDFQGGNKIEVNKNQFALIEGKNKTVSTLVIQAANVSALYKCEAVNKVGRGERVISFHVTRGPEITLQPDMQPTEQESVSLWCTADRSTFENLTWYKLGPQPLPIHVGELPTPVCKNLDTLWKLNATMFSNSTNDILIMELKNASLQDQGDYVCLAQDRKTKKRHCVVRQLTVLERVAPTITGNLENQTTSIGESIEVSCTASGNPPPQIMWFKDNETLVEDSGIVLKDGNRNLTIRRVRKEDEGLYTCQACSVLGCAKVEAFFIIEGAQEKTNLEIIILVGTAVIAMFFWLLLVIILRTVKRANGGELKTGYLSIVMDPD

[2] = biological target: T1, VEGFR2(ΔKD)m -20-809; assay: ELISA
[3] = biological target: T1, VEGFR2(ΔKD)m -20-809; assay: solid-phase radioligand binding

B2: VEGF161-CPG2(Q)3-H6 1-161 (protein)
chain: MTDRQTDTAPSPSYHLLPGRRRTVDAAASRGQGPEPAPGGGVEGVGARGVALKLFVQLLGCSRFGGAVVRAGEAEPSGAARSASSGREEPQPEEGEEEEEKEEERGPQWRLGARKPGSWTGEAAVCADSAPAARAPQALARASGRGGRVARRGAEESGPPH
modifications: fusion to N-terminus of CPG2(Q)3 (aa 23-415), H6 tag
Kd [1]: 3.3 nM
Kd [2]: 1.06 nM

B4: [125I]VEGF (protein)
chain: MTDRQTDTAPSPSYHLLPGRRRTVDAAASRGQGPEPAPGGGVEGVGARGVALKLFVQLLGCSRFGGAVVRAGEAEPSGAARSASSGREEPQPEEGEEEEEKEEERGPQWRLGARKPGSWTGEAAVCADSAPAARAPQALARASGRGGRVARRGAEESGPPHSPSRRGSASRAGPGRASETMNFLLSWVHWSLALLLYLHHAKWSQAAPMAEGGGQNHHEVVKFMDVYQRSYCHPIETLVDIFQEYPDEIEYIFKPSCVPLMRCGGCCNDEGLECVPTEESNITMQIMRIKPHQGQHIGEMSFLQHNKCECRPKKDRARQEKKSVRGKGKGQKRKRKKSRYKSWSVPCGPCSERRKHLFVQDPQTCKCSCKNTDSRCKARQLELNERTCRCDKPRR
modifications: 125I-labelled VEGF
Kd [3]: 0.51 nM

Further lines, results first:

Kd [1]: 9.6 nM
Kd [2]: 0.51 nM
B1: VEGF115-CPG2(Q)3-H6 1-115 (protein)
chain: MTDRQTDTAPSPSYHLLPGRRRTVDAAASRGQGPEPAPGGGVEGVGARGVALKLFVQLLGCSRFGGAVVRAGEAEPSGAARSASSGREEPQPEEGEEEEEKEEERGPQWRLGARK
modifications: fusion to N-terminus of CPG2(Q)3 (aa 23-415), H6 tag

Kd [1]: 1.3 nM
Kd [2]: 0.75 nM
B3: CPG2(Q)3-VEGF109-H6 1-109 (protein)
chain: MTDRQTDTAPSPSYHLLPGRRRTVDAAASRGQGPEPAPGGGVEGVGARGVALKLFVQLLGCSRFGGAVVRAGEAEPSGAARSASSGREEPQPEEGEEEEEKEEERGPQW
modifications: fusion to C-terminus of CPG2(Q)3 (aa 23-415), H6 tag
